Measured values published in the supplement of paper PMC9170038.

System: K4 kissing-loop RNA reporter
Assay: apparent KD of K4 kissing-loop reporter; higher = weaker reporter binding
Settings: Eterna round: R107
Protocol: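 RNA-MaP round R107: designed RNA switches with theophylline, tryptophan, arginine or FMN aptamers are transcribed on-chip within common flanks. They are titrated with a labelled K4 kissing-loop RNA reporter in RNA-MaP buffer (100 mM Tris pH 7.5, 80 mM KCl, 4 mM MgCl2), without ligand or with the indicated ligand. Median apparent KD per design.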

[1] = input ligand: theophylline 20 uM
[2] = input ligand: tryptophan 2.4 mM
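Further: bound reporter read as fluorescence of individual clusters on recovered sequencing chips by microscopy, with normalized cluster intensities fitted with a binding model.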

| Sequence | apparent KD of K4 kissing-loop reporter (input ligand: FMN 200 uM) | apparent KD of K4 kissing-loop reporter (input ligand: arginine 13.2 mM) | apparent KD of K4 kissing-loop reporter (input ligand: none) | apparent KD of K4 kissing-loop reporter [1] | apparent KD of K4 kissing-loop reporter [2] |
| --- | --- | --- | --- | --- | --- |
| CCAAGCGUCAGCGAUACCAGAAUUCUAGUGAUGUUAGGUUCUGUCAUUGUACUAGCAGUGUUCCCUUGGCAGCGCGUGAUAGGCA [theeternabot_exclusion_KL_Theo_B_16] | 170 nM | 121 nM | 140 nM | 173 nM | 138 nM |
| CCAGAAUGAUGAAGAUGAUAAAUUACUGAAGGAGCGCAUAUAGUUGCAGGUAGGUCGCGGUGAAUAAGUAUAGUGAUGUUAUACC [SSArgA.Ac] | 265 nM | 167 nM | 221 nM | 217 nM | 204 nM |
| CCAGUUUGAGUGAUGUUCAGGCAUUGGUACGAGGAUAUCGAGGAGUUGAGAAGGCGUACUACUCAACUAUGUAUGAAUACAUACC [FMN A Ex t2] | 224 nM | 89 nM | 125 nM | 126 nM | 116 nM |
| CCAUCGCUAUUCGAUACCAGUCAUUUUUUAUUUUAUUUUUUUUUUGGAGUGAUGUUCCAAGACCCUUGGCAGCGAAUAGUGAUGG [whbob_SS_Theo_B_th78] | 119 nM | 130 nM | 113 nM | 139 nM | 106 nM |
| CCAUUCAUUUACGAUACCAGUCUAAUAUAUUUAAUCAAAACCCUCGCCGAGUGAUGUUCGGACCCUUGGCAGCGUCUGCGACAGG [cyycmullin] | 354 nM | 333 nM | 334 nM | 399 nM | 227 nM |
| CCGAAGAACCAGUGAUGUUGGUUGACUAGACAGGAUAUGAGCAACAUCAGAAGGGUCUGGCUUCGGGAGUGAGUCGCGCUGACUU [Reverigeed] | 260 nM | 192 nM | 319 nM | 254 nM | 314 nM |
| CCGGACACCUCGGAUACCAGCCUGAGUGAUGUUCAAGCUGAACUCUCUUAAUAGGUCACCGGCCCUUGGCAGCCGCAUCCUAAGC [theeternabot_exclusion_KL_Theo_B_46] | 375 nM | 269 nM | 353 nM | 310 nM | 313 nM |
| CCGGAUUAUGCGGCCGCCACUGAGAAAUUGGAGGUACGCCCUCCCGAUAGUGAUGUUAUCCAUUACAGGACCGGGCAUCUCCUCU [theeternabot_sameState_KL_Trp_B_23] | 779 nM | 421 nM | 893 nM | 500 nM | 325 nM |
| CCUAUCUCAUACGAUACCAGUCCGAGUGAUGUUCGAACAUAAAUUAGUUUGCCAUAUAAUGACCCUUGGCAGCGUAUGGGAUAGG [Ex Theophylline B K4 12] | 576 nM | 448 nM | 550 nM | 623 nM | 522 nM |
| CGAAUGGAACUAUUGAACAUUUGUAUUGGCAAGGAUAUCGGGCUAUCGAGAAGGUGCUAUUUGGGCAGUGAUGUUGCCGAUUUAA [theeternabot_sameState_KL_FMN_A_10] | 43.3 nM | 94.4 nM | 54.1 nM | 90.9 nM | 50 nM |
| CGAGCGCGUGCGGCCGCCACUACUAUAAGUCGUCCAAGUUAGUGAUGUUGACUGAACGUCGGAAAUAGGACCGGGCAUAGUUUUA [theeternabot_sameState_KL_Trp_B_40] | 351 nM | 410 nM | 420 nM | 415 nM | 300 nM |
| CGAGUCGGUUCAGAUACCAGCCAAUUAGAGUCGAGUGAUGUUCGACAAUGAACGUCCAAAGGCCCUUGGCAGCUGGAUUGGGAAC [Same State Theophylline B GF 20] | 157 nM | 61.1 nM | 104 nM | 112 nM | 171 nM |
| CGAGUGAUGUUCGUUUUUUACUUUUUUUGACAGGAUAUGCGGAAACGCAGAAGGGUCACCUUUGAGUUAAAAGAAGUUAUUUUUU [Ex FMN A 18] | 262 nM | 267 nM | 317 nM | 271 nM | 249 nM |
| CGAUGUUCCUGGGAUACCAGUCGGAGUCUCAGAGCUCGGAGUGAUGUUCUGGGAUGUUUCGGCCCUUGGCAGCUCUGGGACUCCU [#2 Exclusion - Theophylline B Attempt #22 (HarryS)] | 881 nM | 630 nM | 819 nM | 840 nM | 662 nM |
| CGCAGUGAUGUUGCGAGUAGCUACAGGGAAGGAGCGUGCUAGAGCACAGGUAGGUCGCCCACUGGGUCAGUGAUGUUGGUCGGGU [Same State Arginine A GF 29] | 201 nM | 166 nM | 180 nM | 171 nM | 171 nM |
| CGCAGUGAUGUUGCUAUUAUUCUUGAUUAACGAGGACCGGUACGGCCGCCACUCGGUUUCUAUCUGAUCCAGCGUUUUGUUGAGU [#23 K4 Tryptophan A Exclusion] | 474 nM | 562 nM | 638 nM | 620 nM | 335 nM |
| CGCAGUGAUGUUGCUAUUAUUCUUGGUUAACGAGGACCGGUACGGCCGCCACUCGAUUUCUGUCUAGUCCAGUGUUUUUUUGAGU [whbob_EX_Tryp_A_t7] | 363 nM | 464 nM | 439 nM | 492 nM | 263 nM |
| CGCAUACCUGCGCUAGUAGUGAUGUUACAGCGAGGACCGGUACGGCCGCCACUCGUGACGGUCGCAAAACGCGUUGCAGAACACU [theeternabot_exclusion_KL_Trp_A_32] | 342 nM | 183 nM | 247 nM | 253 nM | 322 nM |
| CGCCGCAACUGAAGGAGCGCGCCAGUGAUGUUGGACGGCUUUGUCAAGGAAACUGCACCGGUGCAGGUAGGUCGCAGUUCGCGGU [Dilea] | 278 nM | 291 nM | 297 nM | 253 nM | 252 nM |
| CGCCGGAAGGCGGUCGCUCCCACUCCGGAAGGAGCGCCCGGAAGGGCAGGUAGGUCGCCGGAGUGAUGUUCCGGUGGAGGGACCG [#2 Exclusion - Arginine A Attempt #10 (Inspired by Omei)] | 230 nM | 117 nM | 113 nM | 111 nM | 109 nM |
| CGCGAGUCCUUUCAGUGAGUGAUGUUUACGCGAGGACCGGUACGGCCGCCACUCGAUGGUAUACCAAGACAUCAGCAGAUUGUCU [theeternabot_exclusion_KL_Trp_A_18] | 304 nM | 304 nM | 321 nM | 387 nM | 342 nM |
